US20240035012A1
Read-outs that look alike come from different tables or passages of the source.

What was measured:
[1] = target: prefusion stabilized trimeric SARS-CoV-2 spike protein ectodomain (SARS-CoV-2) (UniProt P0DTC2)
[2] = target: prefusion stabilized trimeric SARS-CoV-2 spike protein ectodomain (SARS-CoV-2) (UniProt P0DTC2); remark: listed apart in the source
[3] = target: prefusion stabilized trimeric SARS-CoV-2 spike protein ectodomain (SARS-CoV-2) (UniProt P0DTC2); remark: listed apart in the source
[4] = target: prefusion stabilized trimeric SARS-CoV-2 spike protein ectodomain (SARS-CoV-2) (UniProt P0DTC2); assay: ELISA, S-ECD coated on plate, ACE2 protein titrated, anti-GFP detection
[5] = target: prefusion stabilized trimeric SARS-CoV-2 spike protein ectodomain (SARS-CoV-2) (UniProt P0DTC2); remark: listed apart in the source

For “ACE2-flexible-3HB (from UniProt Q9BYF1 18-615) (receptor)”, the Kd [1] was 4.4 nM, the Kd [2] was 1.31 nM and the IC50 [3] was 0.06 nM.

“ACE2-flexible-foldon (from UniProt Q9BYF1 18-615) (receptor)” gave a Kd [1] of 0.34 nM, a Kd [2] of 0.52 nM and an IC50 [3] of 0.07 nM.

“ACE2-rigid-3HB (from UniProt Q9BYF1 18-615) (receptor)” showed an IC50 [4] of 0.03 nM and a Kd [2] of under 0.001 nM.

For “ACE2-rigid-foldon (from UniProt Q9BYF1 18-615) (receptor)”, the IC50 [4] was 0.03 nM and the Kd [2] was under 0.001 nM.

In the case of “ACE2-short-foldon (from UniProt Q9BYF1 18-615) (receptor)”, the IC50 [5] is reported as 0.05 nM and the Kd [2] is reported as 0.53 nM.

“Monomeric ACE2 (ACE2 (18-615)-(GGGGS)5-HRV3C-eGFP-His8) (from UniProt Q9BYF1 18-615) (receptor)” was tested, and the Kd [1] was 34 nM, the IC50 [4] was 27 nM and the IC50 [3] was 26.6 nM.
